Test results from PMC4615246 (Nucleus, 2015).

T1: LacI-CFP-Nup107 (human, UniProt P57740 1-925)
T1 sequence: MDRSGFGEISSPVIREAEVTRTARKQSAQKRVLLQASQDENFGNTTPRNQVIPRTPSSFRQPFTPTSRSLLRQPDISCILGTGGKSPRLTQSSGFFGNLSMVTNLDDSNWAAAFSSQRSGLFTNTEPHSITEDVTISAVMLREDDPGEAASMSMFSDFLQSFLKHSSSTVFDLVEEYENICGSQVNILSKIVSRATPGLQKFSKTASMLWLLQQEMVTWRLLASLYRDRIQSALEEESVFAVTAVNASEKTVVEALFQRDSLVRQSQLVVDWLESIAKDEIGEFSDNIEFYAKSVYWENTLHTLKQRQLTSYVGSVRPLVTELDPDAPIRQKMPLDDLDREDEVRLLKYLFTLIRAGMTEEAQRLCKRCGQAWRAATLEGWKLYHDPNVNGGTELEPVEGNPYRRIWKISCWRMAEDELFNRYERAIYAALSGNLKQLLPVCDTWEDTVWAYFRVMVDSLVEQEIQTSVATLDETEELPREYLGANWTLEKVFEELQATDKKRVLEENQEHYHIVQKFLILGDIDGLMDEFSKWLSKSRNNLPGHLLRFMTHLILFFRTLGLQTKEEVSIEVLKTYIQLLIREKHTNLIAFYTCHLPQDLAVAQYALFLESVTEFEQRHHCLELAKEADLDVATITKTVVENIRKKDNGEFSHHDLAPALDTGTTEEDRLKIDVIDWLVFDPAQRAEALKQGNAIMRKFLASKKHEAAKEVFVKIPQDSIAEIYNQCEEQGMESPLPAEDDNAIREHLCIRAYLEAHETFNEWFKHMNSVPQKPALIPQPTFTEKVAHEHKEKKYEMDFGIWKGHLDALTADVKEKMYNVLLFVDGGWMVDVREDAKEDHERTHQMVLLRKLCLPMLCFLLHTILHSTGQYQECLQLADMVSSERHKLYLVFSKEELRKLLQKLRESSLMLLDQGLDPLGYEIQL

T2: LacI-CFP-Nup50 (human, UniProt Q9UKX7 1-468)
T2 sequence: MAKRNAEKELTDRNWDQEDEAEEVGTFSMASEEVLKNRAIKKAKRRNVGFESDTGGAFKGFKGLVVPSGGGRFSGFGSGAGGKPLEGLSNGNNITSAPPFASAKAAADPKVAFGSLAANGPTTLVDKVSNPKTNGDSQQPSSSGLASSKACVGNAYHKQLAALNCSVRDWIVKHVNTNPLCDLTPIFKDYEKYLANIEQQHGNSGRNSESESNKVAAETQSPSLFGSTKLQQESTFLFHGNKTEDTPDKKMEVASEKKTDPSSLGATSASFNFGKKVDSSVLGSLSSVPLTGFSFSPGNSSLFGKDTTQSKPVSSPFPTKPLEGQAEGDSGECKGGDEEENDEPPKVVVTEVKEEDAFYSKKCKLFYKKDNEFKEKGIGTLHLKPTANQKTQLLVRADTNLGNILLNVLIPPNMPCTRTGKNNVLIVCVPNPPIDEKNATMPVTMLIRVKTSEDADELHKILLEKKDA

T3: LacI-CFP-Nup133 (human, UniProt Q8WUM0 1-1156)
T3 sequence: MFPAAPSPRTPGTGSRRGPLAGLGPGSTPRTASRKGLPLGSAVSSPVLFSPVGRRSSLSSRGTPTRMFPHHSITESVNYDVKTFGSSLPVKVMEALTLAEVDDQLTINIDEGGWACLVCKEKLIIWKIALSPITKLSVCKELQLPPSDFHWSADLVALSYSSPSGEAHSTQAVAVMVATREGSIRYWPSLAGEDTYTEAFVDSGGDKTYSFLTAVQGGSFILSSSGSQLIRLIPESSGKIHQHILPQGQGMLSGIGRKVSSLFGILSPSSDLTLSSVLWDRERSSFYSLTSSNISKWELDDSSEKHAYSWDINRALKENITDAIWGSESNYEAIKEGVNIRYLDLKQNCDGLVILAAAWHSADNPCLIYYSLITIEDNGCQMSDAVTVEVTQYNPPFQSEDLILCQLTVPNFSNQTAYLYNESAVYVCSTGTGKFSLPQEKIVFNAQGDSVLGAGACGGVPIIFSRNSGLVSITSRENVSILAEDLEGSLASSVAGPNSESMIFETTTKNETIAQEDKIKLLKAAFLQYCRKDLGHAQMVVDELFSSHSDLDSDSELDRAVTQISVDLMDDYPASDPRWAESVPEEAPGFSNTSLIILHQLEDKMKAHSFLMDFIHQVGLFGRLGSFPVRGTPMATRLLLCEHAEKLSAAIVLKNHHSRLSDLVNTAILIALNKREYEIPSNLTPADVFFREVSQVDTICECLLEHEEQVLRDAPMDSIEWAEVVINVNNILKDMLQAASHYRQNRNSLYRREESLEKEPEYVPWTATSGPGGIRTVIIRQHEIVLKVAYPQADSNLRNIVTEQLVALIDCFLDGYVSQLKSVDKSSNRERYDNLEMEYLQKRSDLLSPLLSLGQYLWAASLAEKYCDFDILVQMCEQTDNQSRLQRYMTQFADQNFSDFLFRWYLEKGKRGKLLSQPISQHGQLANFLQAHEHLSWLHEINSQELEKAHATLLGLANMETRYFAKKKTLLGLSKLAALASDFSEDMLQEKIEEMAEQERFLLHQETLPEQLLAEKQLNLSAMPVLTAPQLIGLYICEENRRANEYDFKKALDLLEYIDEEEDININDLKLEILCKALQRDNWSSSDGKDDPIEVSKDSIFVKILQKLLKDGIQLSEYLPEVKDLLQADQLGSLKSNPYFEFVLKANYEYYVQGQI

B1: Nup160 (endogenous) (natural protein)
chain: MLHLSAAPPAPPPEVTATARPCLCSVGRRGDGGKMAAAGALERSFVELSGAERERPRHFREFTVCSIGTANAVAGAVKYSESAGGFYYVESGKLFSVTRNRFIHWKTSGDTLELMEESLDINLLNNAIRLKFQNCSVLPGGVYVSETQNRVIILMLTNQTVHRLLLPHPSRMYRSELVVDSQMQSIFTDIGKVDFTDPCNYQLIPAVPGISPNSTASTAWLSSDGEALFALPCASGGIFVLKLPPYDIPGMVSVVELKQSSVMQRLLTGWMPTAIRGDQSPSDRPLSLAVHCVEHDAFIFALCQDHKLRMWSYKEQMCLMVADMLEYVPVKKDLRLTAGTGHKLRLAYSPTMGLYLGIYMHAPKRGQFCIFQLVSTESNRYSLDHISSLFTSQETLIDFALTSTDIWALWHDAENQTVVKYINFEHNVAGQWNPVFMQPLPEEEIVIRDDQDPREMYLQSLFTPGQFTNEALCKALQIFCRGTERNLDLSWSELKKEVTLAVENELQGSVTEYEFSQEEFRNLQQEFWCKFYACCLQYQEALSHPLALHLNPHTNMVCLLKKGYLSFLIPSSLVDHLYLLPYENLLTEDETTISDDVDIARDVICLIKCLRLIEESVTVDMSVIMEMSCYNLQSPEKAAEQILEDMITIDVENVMEDICSKLQEIRNPIHAIGLLIREMDYETEVEMEKGFNPAQPLNIRMNLTQLYGSNTAGYIVCRGVHKIASTRFLICRDLLILQQLLMRLGDAVIWGTGQLFQAQQDLLHRTAPLLLSYYLIKWGSECLATDVPLDTLESNLQHLSVLELTDSGALMANRFVSSPQTIVELFFQEVARKHIISHLFSQPKAPLSQTGLNWPEMITAITSYLLQLLWPSNPGCLFLECLMGNCQYVQLQDYIQLLHPWCQVNVGSCRFMLGRCYLVTGEGQKALECFCQAASEVGKEEFLDRLIRSEDGEIVSTPRLQYYDKVLRLLDVIGLPELVIQLATSAITEAGDDWKSQATLRTCIFKHHLDLGHNSQAYEALTQIPDSSRQLDCLRQLVVVLCERSQLQDLVEFPYVNLHNEVVGIIESRARAVDLMTHNYYELLYAFHIYRHNYRKAGTVMFEYGMRLGREVRTLRGLEKQGNCYLAALNCLRLIRPEYAWIVQPVSGAVYDRPGASPKRNHDGECTAAPTNRQIEILELEDLEKECSLARIRLTLAQHDPSAVAVAGSSSAEEMVTLLVQAGLFDTAISLCQTFKLPLTPVFEGLAFKCIKLQFGGEAAQAEAWAWLAANQLSSVITTKESSATDEAWRLLSTYLERYKVQNNLYHHCVINKLLSHGVPLPNWLINSYKKVDAAELLRLYLNYDLLEEAVDLVSEYVDAVLGKGHQYFGIEFPLSATAPMVWLPYSSIDQLLQALGENSANSHNIALSQKILDKLEDYQQKVDKATRDLLYRRTL
B2: Nup62 (endogenous) (natural protein)
chain: MSGFNFGGTGAPTGGFTFGTAKTATTTPATGFSFSTSGTGGFNFGAPFQPATSTPSTGLFSLATQTPATQTTGFTFGTATLASGGTGFSLGIGASKLNLSNTAATPAMANPSGFGLGSSNLTNAISSTVTSSQGTAPTGFVFGPSTTSVAPATTSGGFSFTGGSTAQPSGFNIGSAGNSAQPTAPATLPFTPATPAATTAGATQPAAPTPTATITSTGPSLFASIATAPTSSATTGLSLCTPVTTAGAPTAGTQGFSLKAPGAASGTSTTTSTAATATATTTSSSSTTGFALNLKPLAPAGIPSNTAAAVTAPPGPGAAAGAAASSAMTYAQLESLINKWSLELEDQERHFLQQATQVNAWDRTLIENGEKITSLHREVEKVKLDQKRLDQELDFILSQQKELEDLLSPLEELVKEQSGTIYLQHADEEREKTYKLAENIDAQLKRMAQDLKDIIEHLNTSGAPADTSDPLQQICKILNAHMDSLQWIDQNSALLQRKVEEVTKVCEGRRKEQERSFRITFD
B3: Nup93 (endogenous) (natural protein)
chain: MDTEGFGELLQQAEQLAAETEGISELPHVERNLQEIQQAGERLRSRTLTRTSQETADVKASVLLGSRGLDISHISQRLESLSAATTFEPLEPVKDTDIQGFLKNEKDNALLSAIEESRKRTFGMAEEYHRESMLVEWEQVKQRILHTLLASGEDALDFTQESEPSYISDVGPPGRSSLDNIEMAYARQIYIYNEKIVNGHLQPNLVDLCASVAELDDKSISDMWTMVKQMTDVLLTPATDALKNRSSVEVRMEFVRQALAYLEQSYKNYTLVTVFGNLHQAQLGGVPGTYQLVRSFLNIKLPAPLPGLQDGEVEGHPVWALIYYCMRCGDLLAASQVVNRAQHQLGEFKTWFQEYMNSKDRRLSPATENKLRLHYRRALRNNTDPYKRAVYCIIGRCDVTDNQSEVADKTEDYLWLKLNQVCFDDDGTSSPQDRLTLSQFQKQLLEDYGESHFTVNQQPFLYFQVLFLTAQFEAAVAFLFRMERLRCHAVHVALVLFELKLLLKSSGQSAQLLSHEPGDPPCLRRLNFVRLLMLYTRKFESTDPREALQYFYFLRDEKDSQGENMFLRCVSELVIESREFDMILGKLENDGSRKPGVIDKFTSDTKPIINKVASVAENKGLFEEAAKLYDLAKNADKVLELMNKLLSPVVPQISAPQSNKERLKNMALSIAERYRAQGISANKFVDSTFYLLLDLITFFDEYHSGHIDRAFDIIERLKLVPLNQESVEERVAAFRNFSDEIRHNLSEVLLATMNILFTQFKRLKGTSPSSSSRPQRVIEDRDSQLRSQARTLITFAGMIPYRTSGDTNARLVQMEVLMN
B4: Nup53 (endogenous) (natural protein)
chain: MAAFAVEPQGPALGSEPMMLGSPTSPKPGVNAQFLPGFLMGDLPAPVTPQPRSISGPSVGVMEMRSPLLAGGSPPQPVVPAHKDKSGAPPVRSIYDDISSPGLGSTPLTSRRQPNISVMQSPLVGVTSTPGTGQSMFSPASIGQPRKTTLSPAQLDPFYTQGDSLTSEDHLDDSWVTVFGFPQASASYILLQFAQYGNILKHVMSNTGNWMHIRYQSKLQARKALSKDGRIFGESIMIGVKPCIDKSVMESSDRCALSSPSLAFTPPIKTLGTPTQPGSTPRISTMRPLATAYKASTSDYQVISDRQTPKKDESLVSKAMEYMFGW

Molecular target: T1, LacI-CFP-Nup107
Assay: LacI/LacO array recruitment in cells

Binder	percent of transfected cells showing colocalization [%]
B1	39
B2	24
B3	9

Molecular target: T2, LacI-CFP-Nup50
Assay: LacI/LacO array recruitment in cells

Binder	percent of transfected cells showing colocalization [%]
B1	4
B2	43
B4	6

Molecular target: T3, LacI-CFP-Nup133
Assay: LacI/LacO array recruitment in cells

Binder	percent of transfected cells showing colocalization [%]
B1	44
B2	5
B3	21
B4	20
